Assays:
cynomolgus monkey IL-13 [1] = target: T1, cynomolgus monkey IL-13 (cynomolgus monkey, UniProt Q0PW92 19-132); experiment: KinExA, fixed antigen
T1 construct: also called cy IL-13; cyno IL-13; not shown: N-terminal FLAG tag of the Pfizer-made protein

cynomolgus monkey IL-4 = target: T2, cynomolgus monkey IL-4 (cynomolgus monkey, UniProt P79339 25-153); experiment: KinExA, fixed antigen
T2 construct: mature; also called cy IL-4; cyno IL-4
T2 sequence (looked up): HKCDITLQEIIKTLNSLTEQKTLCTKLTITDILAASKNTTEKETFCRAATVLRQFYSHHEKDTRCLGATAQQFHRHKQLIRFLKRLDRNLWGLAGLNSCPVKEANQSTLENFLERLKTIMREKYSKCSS
Experimental: Samples were prepared in PBS containing 0.1% sodium azide and 1.0 mg/ml BSA. The fixed antigen assay method was used to determine binding affinity. […] Each trispecific and IL-4 cytokine were equilibrated for at least 72 hours at room temperature, then passed through a flow cell containing Polymethylmethacrylate (PMMA) beads coated with anti-hIL-4 Ab-0002 (Pfizer) that contains the same IL-4 binding domain as the trispecifics. […] Data analysis was performed with KinExA Pro software version 4.3.11 (Sapidyne). […] The ‘drift correction’ fitting option was used when responses varied between replicate injections. Two curves were obtained in independent experiments and analyzed using the ‘n-curve analysis’ tool to obtain global best fit values for the KD and active concentration of IL-4 cytokine. The software reports each best fit value along with a 95% confidence interval.
Samples were prepared in PBS containing 0.1% sodium azide and 1.0 mg/ml BSA. A fixed antigen assay method was used to determine binding affinity.

rat IL-13 = target: T3, rat IL-13 (rat, UniProt P42203 19-131, limits assumed); experiment: SPR (Biacore 8K+), trispecific captured on anti-human Fc on a CM5 chip, 200 nM IL-13 injected for 60 s
T3 construct: also called rt IL-13
T3 sequence (looked up): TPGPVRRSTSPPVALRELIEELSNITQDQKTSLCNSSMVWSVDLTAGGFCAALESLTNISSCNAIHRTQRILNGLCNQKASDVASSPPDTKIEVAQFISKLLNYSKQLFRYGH
Experimental: (§1) All experiments were performed using a Biacore 8K+ instrument (GE HealthCare, Marlborough, MA). Anti-human Fc (Jackson Immunoresearch) or anti-mouse Fc (GE HealthCare, Marlborough, MA) was immobilized on a CM5 sensor chip using a standard amine coupling protocol provided by GE HealthCare. […] The association and dissociation phases were 60 seconds and 300 seconds, respectively. At the end of the dissociation phase, the surface containing anti-human or anti-mouse Fc was regenerated using one 30 second pulse of 3M MgCl₂ followed by one 30 second pulse of 10 mM glycine pH 1.7.

mouse IL-13 = target: T4, mouse IL-13 (mouse, UniProt P20109 26-131, limits assumed); experiment: as above
T4 construct: also called mu IL-13
T4 sequence (looked up): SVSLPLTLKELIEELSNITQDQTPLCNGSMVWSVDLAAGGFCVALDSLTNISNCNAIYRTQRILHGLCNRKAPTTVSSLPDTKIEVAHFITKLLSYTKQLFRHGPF
Experimental: as §1

human IL-4 = target: T5, human IL-4 (human, UniProt P05112 25-153); experiment: cell-based or functional assay
T5 sequence (looked up): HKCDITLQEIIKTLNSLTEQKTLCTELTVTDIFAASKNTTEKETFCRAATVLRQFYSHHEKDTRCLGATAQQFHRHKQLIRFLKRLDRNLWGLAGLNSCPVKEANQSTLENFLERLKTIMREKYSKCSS

human IL-13 = human IL-13 (human, UniProt P35225 35-146); experiment: cell-based or functional assay
cynomolgus monkey IL-13 [2] = target: T1, cynomolgus monkey IL-13; experiment: cell-based or functional assay
rat IL-33 = target: T6, rat IL-33 (rat, UniProt Q66H70 109-264, limits assumed); experiment: SPR (Biacore T-200, 37 C, buffer with 3 mM DTT), trispecific captured on Protein A/G on a CM5 chip, 200 nM IL-33 injected for 60 s (concentration from Example 75)
T6 construct: also called rat IL-33 WT
T6 sequence (looked up): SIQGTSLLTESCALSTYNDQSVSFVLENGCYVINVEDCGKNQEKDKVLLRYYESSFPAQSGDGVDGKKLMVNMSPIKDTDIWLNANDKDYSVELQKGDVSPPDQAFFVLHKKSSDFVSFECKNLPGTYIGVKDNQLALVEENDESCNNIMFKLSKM
Experimental: (§2) Experiments were done at 37° C. with a collection rate of 10 Hz using HBS-EP+ pH 7.4, containing 3 mM DTT as running and dilution buffer. […] An anti-rat and mouse positive control antibody M36 (Pfizer, L4295010-051) diluted to 10 μgs/mL was captured on flow cell 2 for 60 sec at 10 μLs/min. Flow cell 1 was used as a reference. Binding was evaluated by injecting 200 nM dilutions of each cytokine over all 4 flow cells for 60 sec at 50 μL/min followed by a 300 sec dissociation. The surface was regenerated with a single 60 sec injection of 10 mM Glycine pH 1.5 at 50 μL/min. The data was double referenced and an overlay of the resulting sensorgrams (FIG. 39) was prepared using Biacore T-200 Analysis Software version 3.2.

murine IL-33 = target: T7, murine IL-33 (mouse, UniProt Q8BVZ5 109-266); experiment: as above
T7 construct: also called mouse IL-33 WT
T7 sequence (looked up): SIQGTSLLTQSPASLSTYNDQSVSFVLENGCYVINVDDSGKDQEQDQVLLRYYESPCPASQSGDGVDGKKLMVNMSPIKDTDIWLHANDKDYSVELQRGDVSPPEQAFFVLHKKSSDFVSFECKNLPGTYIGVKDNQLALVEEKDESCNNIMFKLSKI
Experimental: as §2

mouse IL-4 = target: T8, mouse IL-4 (mouse, UniProt P07750 23-140); experiment: SPR (Biacore 8K+), trispecific captured on anti-human Fc on a CM5 chip, 200 nM IL-4 injected for 60 s
T8 construct: also called mu IL-4
T8 sequence (looked up): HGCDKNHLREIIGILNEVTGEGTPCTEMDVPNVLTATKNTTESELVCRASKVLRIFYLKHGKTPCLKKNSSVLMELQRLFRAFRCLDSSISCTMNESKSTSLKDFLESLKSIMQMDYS
Experimental: (§3) All experiments were performed using a Biacore 8K+instrument (GE HealthCare, Marlborough, MA). Anti-human Fc (Jackson Immunoresearch) or anti-mouse Fc (GE HealthCare, Marlborough, MA) was immobilized on a CM5 sensor chip using a standard amine coupling protocol provided by GE HealthCare. […] The association and dissociation phases were 60 seconds and 300 seconds, respectively. At the end of the dissociation phase, the surface containing anti-human or anti-mouse Fc was regenerated using one 30 second pulse of 3M MgCl₂ followed by one 30 second pulse of 10 mM glycine pH 1.7.

rat IL-4 = target: T9, rat IL-4 (rat, UniProt P20096 25-147, limits assumed); experiment: as above
T9 construct: also called rt IL-4
T9 sequence (looked up): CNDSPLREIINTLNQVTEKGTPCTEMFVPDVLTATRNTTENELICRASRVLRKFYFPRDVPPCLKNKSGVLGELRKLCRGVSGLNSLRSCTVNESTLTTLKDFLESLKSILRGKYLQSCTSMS
Experimental: as §3

[3] = target: recombinant cynomolgus monkey TSLP (Pfizer) (cynomolgus monkey, UniProt A0A7N9CAT7 29-159); experiment: cell-based or functional assay
[4] = target: T10, biotinylated human TSLP (Pfizer) (human, UniProt Q969D9 29-159, biotinylated (Avi tag by Example 2)); experiment: KinExA, fixed antigen format, solution affinity, mean
T10 construct: Antigen of the KinExA fixed antigen assay
Experimental: (§4) Samples were prepared in PBS containing 0.1% sodium azide and 1.0 mg/ml BSA. A fixed antigen assay method was used to determine binding affinity. […] Data analysis was performed with the KinExA Pro software version 4.3.11 (Sapidyne). […] The ‘drift correction’ option was selected when responses varied between replicate injections. Two curves were obtained in independent experiments and analyzed using the ‘n-curve analysis’ tool to obtain global best fit values for the KD and active concentration of biotinylated TSLP. The software reports each best fit value along with a 95% confidence interval).

[5] = target: T11, biotinylated cynomolgus monkey TSLP (Pfizer) (cynomolgus monkey, UniProt A0A7N9CAT7 29-159, biotinylated (Avi tag by Example 2)); experiment: as above
T11 construct: Antigen of the KinExA fixed antigen assay
T11 sequence (A0A7N9CAT7 entry or part of it): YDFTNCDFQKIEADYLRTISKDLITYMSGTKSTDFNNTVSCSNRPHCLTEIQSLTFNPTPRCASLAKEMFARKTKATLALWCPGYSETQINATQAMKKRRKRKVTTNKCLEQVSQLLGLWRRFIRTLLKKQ
Experimental: as §4

T1 sequence (Q0PW92 entry or part of it limits assumed): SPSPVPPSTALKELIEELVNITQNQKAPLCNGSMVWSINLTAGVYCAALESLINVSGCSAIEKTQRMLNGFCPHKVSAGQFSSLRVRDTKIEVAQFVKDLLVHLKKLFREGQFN
Chain of human IL-13 (P35225 35-146 limits assumed, form in doubt): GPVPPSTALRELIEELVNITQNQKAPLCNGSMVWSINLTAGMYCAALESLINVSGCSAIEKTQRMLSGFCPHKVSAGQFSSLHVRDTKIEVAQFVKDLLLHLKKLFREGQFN
Chain of recombinant cynomolgus monkey TSLP (Pfizer) (A0A7N9CAT7 entry or part of it): as the sequence (A0A7N9CAT7 entry or part of it) above

B1: IL13433-1258 (trispecific antibody)
heavy: EVQLVESGGGLVQPGGSLRLSCAASGFTFSSYWMYWVRQAPGKGLEWVAAITPNAGEDYYPESVKGRFTISRDNAKNSLYLQMNSLRAEDTAVYYCARGQYYYTKYSLGYWGQGTLVTVSSASTKGPSVFPLAPSSKSTSGGTAALGCLVKDYFPEPVTVSWNSGALTSGVHTFPAVLQSSGLYSLSSVVTVPSSSLGTQTYICNVNHKPSNTKVDKKVEPKSCRKTHTCPPCPAPEAAGAPSVFLFPPKPKDTLMISRTPEVTCVVVDVSHEDPEVKFNWYVDGVEVHNAKTKPREEQYNSTYRVVSVLTVLHQDWLNGKEYKCKVSNKALPAPIEKTISKAKGQPREPQVYTLPPSREEMTKNQVSLTCLVKGFYPSDIAVEWESNGQPENNYKTTPPVLDSDGSFFLYSRLTVDKSRWQQGNVFSCSVLHEALHSHYTQKSLSLSPGK
chain 1: DIQMTQSPSSLSASVGDRVTITCKASESVDHFGWSLVHWYQQKPGKAPKLLIYRASNLESGVPSRFSGSGSGTDFTLTISSLQPEDFATYYCQQSNEDPWTFGGGTKVEIKRTVAAPSVFIFPPSDEQLKSGTASVVCLLNNFYPREAKVQWKVDNALQSGNSQESVTEQDSKDSTYSLSSTLTLSKADYEKHKVYACEVTHQGLSSPVTKSFNRGECGGGGSEVTLRESGPALVKPTQTLTLTCTFSGFSLSNFGEGLSWIRQPPGKGLEWLAHIYWDDDKRYNPSLKSRLTISKDTSRNQVVLTMTNMDPVDTATYYCARRETVFYWYFDVWGQGTTVTVSSASTKGPSVFPLAPSSKSTSGGTAALGCLVKDYFPEPVTVSWNSGALTSGVHTFPAVLQSSGLYSLSSVVTVPSSSLGTQTYICNVNHKPSNTKVDKKVEPKSCEKTHTCPPCPAPEAAGAPSVFLFPPKPKDTLMISRTPEVTCVVVDVSHEDPEVKFNWYVDGVEVHNAKTKPREEQYNSTYRVVSVLTVLHQDWLNGKEYKCKVSNKALPAPIEKTISKAKGQPREPQVYTLPPSREEMTKNQVSLTCEVKGFYPSDIAVEWESNGQPENNYKTTPPVLDSDGSFFLYSKLTVDKSRWQQGNVFSCSVLHEALHSHYTQKSLSLSPGK
light 1: DIQMTQSPSSLSASVGDRVTITCRASQPIHNHLDWYQQKPGKAPKLLIYFGKNLQEGVPSRFSGSGSGTDFTLTISSLQPEDFATYYCFQYKKGWSFGGGTKVEIKRTVAAPSVFIFPPSDEQLKSGTASVVCLLNNFYPREAKVQWKVDNALQSGNSQESVTEQDSKDSTYSLSSTLTLSKADYEKHKVYACEVTHQGLSSPVTKSFNRGEC
light 2: DIQMTQSPSSLSASVGDRVTITCRASQSVDEEGDSYMNWYQQKPGKAPKLLIYAASNLESGVPSRFSGSGSGTDFTLTISSLQPEDFATYYCQQSNKDPPTFGGGTKVEIKRTVAAPSVFIFPPSDEQLKSGTASVVCLLNNFYPREAKVQWKVDNALQSGNSQESVTEQDSKDSTYSLSSTLTLSKADYEKHKVYACEVTHQGLSSPVTKSFNRGEC
chain 2: EVQLVESGGGLVQPGGSLRLSCAASGFTFSSYAMSWVRQAPGKGLEWVASISSGDTTYYPDSVKGRFTISRDNAKNSLYLQMNSLRAEDTAVYYCARNEGYYFGLTLWGQGTLVTVSSASTKGPSVFPLAPSSKSTSGGTAALGCLVKDYFPEPVTVSWNSGALTSGVHTFPAVLQSSGLYSLSSVVTVPSSSLGTQTYICNVNHKPSNTKVDKKVEPKSC
notes: Tri-Fab-Fc: SFab HC(3) IL-33, DFab LC(1)-HC(2) IL-13/IL-4, SFab LC(3), DFab LC(2), modified Fd(1); EE/RR, LS
Cynomolgus monkey IL-13 [1]
  fold of the human IL-13 affinity value: ≤ 2 fold
Cynomolgus monkey IL-4
  fold weaker than the human IL-4 affinity value: ~6.2 fold
Rat IL-13
  binding result: no binding (tested: 200 nM)
Mouse IL-13
  binding result: no binding (tested: 200 nM)
Human IL-4
  fold IL-4 neutralization activity over dupilumab (monocyte CD23 bioassay): ~10 fold
  fold lower potency than mAb IL4-1040 (monocyte CD23 bioassay): ~3.1 fold
Human IL-13
  fold IL-13 neutralization activity over dupilumab (monocyte CD23 bioassay): 7.9 fold
  fold lower potency than IL13-0001 (monocyte CD23 bioassay): ~2.7 fold
Cynomolgus monkey IL-13 [2]
  fold reduced neutralization compared to the human cytokine (monocyte CD23 bioassay): ~4.5 fold
Rat IL-33
  binding result: no binding (tested: 200 nM)
Murine IL-33
  binding result: no binding (tested: 200 nM)
Mouse IL-4
  binding result: no binding (tested: 200 nM)
Rat IL-4
  binding result: no binding (tested: 200 nM)

B2: IL413TSLP-1024 (antibody)
heavy: not shown
light 1: SYVLTQPPSVSVAPGQTARITCGGNNLGSKSVHWYQQKPGQAPVLVVYDDKDRPSWIPERFSGSNSGNTATLTISRGEAGDEADYYCQVWDSKSDHVVFGGGTKLTVLGQPKAAPSVTLFPPSSEELQANKATLVCLISDFYPGAVTVAWKADSSPVKAGVETTTPSKQSNNKYAASSYLSLTPEQWKSHRSYSCQVTHEGSTVEKTVAPTECS
chain 1: DIQMTQSPSSLSASVGDRVTITCKASESVDHFGWSLVHWYQQKPGKAPKLLIYRASNLESGVPSRFSGSGSGTDFTLTISSLQPEDFATYYCQQSNEDPWTFGGGTKVEIKRTVAAPSVFIFPPSDEQLKSGTASVVCLLNNFYPREAKVQWKVDNALQSGNSQESVTEQDSKDSTYSLSSTLTLSKADYEKHKVYACEVTHQGLSSPVTKSFNRGECGGGGSEVTLRESGPALVKPTQTLTLTCTFSGFSLSNFGEGLSWIRQPPGKGLEWLAHIYWDDDKRYNPSLKSRLTISKDTSRNQVVLTMTNMDPVDTATYYCARRETVFYWYFDVWGQGTTVTVSSASTKGPSVFPLAPSSKSTSGGTAALGCLVKDYFPEPVTVSWNSGALTSGVHTFPAVLQSSGLYSLSSVVTVPSSSLGTQTYICNVNHKPSNTKVDKKVEPKSCEKTHTCPPCPAPEAAGAPSVFLFPPKPKDTLMISRTPEVTCVVVDVSHEDPEVKFNWYVDGVEVHNAKTKPREEQYNSTYRVVSVLTVLHQDWLNGKEYKCKVSNKALPAPIEKTISKAKGQPREPQVYTLPPSREEMTKNQVSLTCEVKGFYPSDIAVEWESNGQPENNYKTTPPVLDSDGSFFLYSKLTVDKSRWQQGNVFSCSVLHEALHSHYTQKSLSLSPGK
light 2: DIQMTQSPSSLSASVGDRVTITCRASQSVDEEGDSYMNWYQQKPGKAPKLLIYAASNLESGVPSRFSGSGSGTDFTLTISSLQPEDFATYYCQQSNKDPPTFGGGTKVEIKRTVAAPSVFIFPPSDEQLKSGTASVVCLLNNFYPREAKVQWKVDNALQSGNSQESVTEQDSKDSTYSLSSTLTLSKADYEKHKVYACEVTHQGLSSPVTKSFNRGEC
chain 2: EVQLVESGGGLVQPGGSLRLSCAASGFTFSSYAMSWVRQAPGKGLEWVASISSGDTTYYPDSVKGRFTISRDNAKNSLYLQMNSLRAEDTAVYYCARNEGYYFGLTLWGQGTLVTVSSASTKGPSVFPLAPSSKSTSGGTAALGCLVKDYFPEPVTVSWNSGALTSGVHTFPAVLQSSGLYSLSSVVTVPSSSLGTQTYICNVNHKPSNTKVDKKVEPKSC
notes: RR-EE, LS; monovalent for TSLP
[3]
  IC50, TARC production bioassay, Human Whole Blood (median): 32.7 pM
  IC50, TARC production bioassay, Peripheral Blood Monocytes (median): 30 pM
[4]
  Kd: 3.03 pM
[5]
  Kd: 6.31 pM
